This test has as its target T1, BtubA/B heterodimer (bacterial tubulin) from Prosthecobacter dejongeii (Prosthecobacter dejongeii, UniProt Q8GCC5 1-473; Q8GCC1 1-426).
T1 construct: The same preparation stood as soluble (non-polymerized) heterodimer or, in polymerization buffer with GTP, as filaments; the assay tells which; Construct was a gift from JM; Andreu; also called Btubs; Btub filaments; source: E. coli C41 (DE3), co-expressed from a bicistronic construct, purified (polymerization/depolymerization cycle, SEC)
T1 sequence (looked up) 1: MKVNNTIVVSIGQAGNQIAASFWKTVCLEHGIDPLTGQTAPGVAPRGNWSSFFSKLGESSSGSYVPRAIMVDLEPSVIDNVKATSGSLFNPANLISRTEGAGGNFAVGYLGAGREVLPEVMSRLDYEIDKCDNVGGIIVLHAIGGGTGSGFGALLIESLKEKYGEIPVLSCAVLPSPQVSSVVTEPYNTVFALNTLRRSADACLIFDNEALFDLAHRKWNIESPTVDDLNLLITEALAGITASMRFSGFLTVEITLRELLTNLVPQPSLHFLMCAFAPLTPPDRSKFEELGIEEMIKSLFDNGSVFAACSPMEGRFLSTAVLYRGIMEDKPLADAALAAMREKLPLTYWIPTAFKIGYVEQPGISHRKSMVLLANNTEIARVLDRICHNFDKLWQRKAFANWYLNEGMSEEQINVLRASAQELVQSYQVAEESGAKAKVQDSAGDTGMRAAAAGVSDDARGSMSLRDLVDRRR
T1 sequence (looked up) 2: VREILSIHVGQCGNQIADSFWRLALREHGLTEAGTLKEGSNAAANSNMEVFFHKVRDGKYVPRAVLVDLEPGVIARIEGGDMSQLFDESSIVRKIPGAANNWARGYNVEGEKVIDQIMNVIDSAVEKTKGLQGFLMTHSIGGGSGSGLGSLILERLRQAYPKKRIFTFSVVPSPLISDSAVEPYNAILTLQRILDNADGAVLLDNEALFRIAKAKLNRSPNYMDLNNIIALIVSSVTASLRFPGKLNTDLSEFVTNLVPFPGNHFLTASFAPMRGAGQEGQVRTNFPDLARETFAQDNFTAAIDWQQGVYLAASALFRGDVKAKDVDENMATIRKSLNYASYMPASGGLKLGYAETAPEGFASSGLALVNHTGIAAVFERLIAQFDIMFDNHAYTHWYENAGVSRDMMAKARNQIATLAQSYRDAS
The test can be described thus: co-sedimentation; 10 μM BtubA/B with 10 or 20 μM Bklc in polymerization buffer (20 mM TrisHCl pH 7.5, 300 mM potassium glutamate, 5 mM MgCl2, 1 mM EGTA, 2 mM GTP), 10 min 25 °C, 100.000 x g 30 min; pellet depolymerized at 4 °C (S2); densitometry of Coomassie gels. Particulars: both partners purified.

B1: Bacterial kinesin light chain (Bklc) from Prosthecobacter vanneervenii, C-terminal poly-histidine tag (natural protein, UniProt A8Y5U5 1-256, looked up)
chain: MDTALERQIASASRSVEEARRLAYHDPIRVGALVEQISVLADLRQKEGDFRKAESLYREALFRAQELRKQDPDLLTGIYSLLAHLYDRWGRMDKAAEFYELALKISAENGLEESDKVATIKNNLAMIFKQLRKFERAEGYYCEALETFQRLDGEQSARVASVYNNLGVLYYSHMDVDRAQVMHERALAIRQNLHEGQMDPADLSQTFINLGAVYKAAGDFQKAEACVDRAKRIRAAMNGYHPNPRRSASLLIDKSL
notes: Bklc (bacterial kinesin light chain), Prosthecobacter vanneervenii; Uniprot id A8Y5U5_9BACT; GenBank CAP16140.1; the bklc gene was expressed from pHis17; Construct was a gift from M. Pilhofer; Monomer by SEC and AUC; also called Bklc-His; source: E. coli C41 (DE3), purified (Ni-NTA, SEC); not shown: His-tag, C-terminal, kept
For the molecule B1, the “stoichiometry N” value is ~1 Bklc monomer per BtubA/B heterodimer.

(Values after article PMC5372463, “Bacterial kinesin light chain (Bklc) links the Btub cytoskeleton to membranes” (Scientific Reports, 2017).)
